{
  "source": "patent US20110152176A1",
  "about": "“AGR-MEDIATED INHIBITION AND DISPERSAL OF BIOFILMS” (priority 2008, published 2011)",
  "key": {"S. aureus SH1000 biofilm": {"tested_on": "S. aureus SH1000 biofilm", "test": "Flow cell biofilm detachment (CLSM, COMSTAT biomass, effluent CFU)", "format": "cell-based, Staphylococcus aureus", "conditions": "SH1000 2-day biofilm, proteinase K 2 mg/mL", "method": "(§1) Biofilm experiments. Microtiter plate biofilms were performed as described (Shanks et al., 2005) except that the plates were incubated at 37° C. with shaking at 200 rpm for 12 hours. For flow cell experiments, AIPs were generated using the DnaB intein method, and the AIP concentrations were determined as previously described (Malone et al., 2007). AIPs stocks (20 mM) were stored in 100 mM phosphate (pH 7), 50 mM NaC1, 1 mM tris(2-carboxyethyl) phosphine (TCEP) and were diluted into the biofilm flow medium to a final concentration of 50 nM. When required, […] of erythromycin and/or chloramphenicol were added to the flow cell media to maintain plasmids. The growth medium for flow cell biofilms consisted of 2% TSB plus 0.2% glucose unless otherwise indicated. Flow cell biofilm experiments and confocal microscopy were performed as previously described (Yarwood et al., 2004). […] Biofilm biomass was quantified with the COMSTAT program (Heydorn et al., 2000) and percent biomass detached was calculated by subtracting biomass present at day 4 from day 2. To quantitate the number of bacteria detaching from a biofilm, 1 ml of flow cell effluent was collected on ice at indicated time points. […]\nAIP detaches S. aureus biofilms. […] To confirm that AIP-I caused detachment, the inventors counted viable S. aureus cells in the effluent media (FIG. 2C). […]"}, "SH1000 biofilm": {"tested_on": "SH1000 biofilm", "test": "Microtiter plate biofilm formation", "format": "cell-based, Staphylococcus aureus", "conditions": "proteinase K added to SH1000 (data not shown)", "method": "as §1, with “2004). Flow cells were inoculated with overnight cultures diluted 1:100 in sterile water and laminar flow ([…]) was initiated after one hour incubation.” for “2004).”"}},
  "data": [
    {"molecule": "proteinase K: protease enzyme (Sigma-Aldrich) suspended in water and added to the media reservoir (protein, UniProt P06873 106-384, looked up) Proteinase K: AAQTNAPWGLARISSTSPGTSTYYYDESAGQGSCVYVIDTGIEASHPEFEGRAQMVKTYYYSSRDGNGHGTHCAGTVGSRTYGVAKKTQLFGVKVLDDNGSGQYSTIIAGMDFVASDKNNRNCPKGVVASLSLGGGYSSSVNSAAARLQSSGVMVAVAAGNNNADARNYSPASEPSVCTVGASDRYDRRSSFSNYGSVLDIFGPGTSILSTWIGGSTRSISGTSMATPHVAGLAAYLMTLGKTTAASACRYIADTANKGDLSNIPFGTVNLLAYNNYQA", "values": [
      {"measurement": "biofilm detachment observed by CLSM", "setting": "S. aureus SH1000 biofilm", "value": "rapid detachment over 12 hrs"},
      {"measurement": "biofilm development in microtiter plate", "setting": "SH1000 biofilm", "value": "biofilms were unable to develop"}
    ]}
  ]
}
